Consider 2 substances from PMC10581246, “The presence of benzene ring activating CoA ligases for aromatics degradation in the ANaerobic MEthanotrophic (ANME) archaea” (Microbiology Spectrum, 2023).

Test systems include O=C(O)c1ccc(O)cc1; O=C(O)c1ccccc1; O=C(O)c1cccc(O)c1; O=C(O)Cc1ccccc1; O=C(O)Cc1ccc(O)cc1; O=C(O)Cc1cccc(O)c1; O=C(O)Cc1ccc(O)c(O)c1.
Holding throughout (test): purified protein
Common to all, as to conditions: apparent, 1 mM ATP, 0.5 mM CoA, 10 mM MgCl2, 50 mM Tris-HCl pH 8.0, room temperature

For the substance BadAANME (ANME-2 cluster archaeon), the Km (in general, the substrate concentration at which the rate is half of its maximum) was determined as 55.08 ± 6.910 µM with O=C(O)c1ccc(O)cc1, 12.98 ± 1.563 µM in the data set with O=C(O)c1ccccc1 and 76.97 ± 14.69 µM in the data set on O=C(O)c1cccc(O)c1. For the same substance, the kcat – broadly, the number of substrate molecules converted per active site and unit of time at saturation – in the data set on O=C(O)c1ccc(O)cc1 stood at 0.1086 ± 0.02963 s⁻¹; with O=C(O)c1ccccc1 it was 0.1127 ± 0.002522 s⁻¹; in the data set with O=C(O)c1cccc(O)c1, 0.2197 ± 0.01127 s⁻¹.

As for “PaaKANME (PaaK1ANME) (ANME-2 cluster archaeon)”, the Km in the data set with O=C(O)Cc1ccccc1 was determined as 180.6 ± 32.18 µM; in the data set on O=C(O)Cc1ccc(O)cc1 it was 49.15 ± 12.54 µM; with O=C(O)Cc1cccc(O)c1, 68.87 ± 9.425 µM; in the data set on O=C(O)Cc1ccc(O)c(O)c1, 42.80 ± 15.03 µM. Besides, the kcat with O=C(O)Cc1ccccc1 came to 0.153 ± 0.00755 s⁻¹; with O=C(O)Cc1ccc(O)cc1, 0.148 ± 0.00881 s⁻¹; with O=C(O)Cc1cccc(O)c1, 0.254 ± 0.00895 s⁻¹; in the data set on O=C(O)Cc1ccc(O)c(O)c1 it was 0.0976 ± 0.00722 s⁻¹.
